Test results taken from article PMC2605612 (Experimental cell research, 2008).
Like-named read-outs stand apart in the source and are kept apart here.

B1: Myc-hFis1[32-152] (domain or fragment, human, UniProt Q9Y3D6 32-152, looked up)
chain: KSTQFEYAWCLVRSKYNDDIRKGIVLLEELLPKGSKEEQRDYVFYLAVGNYRLKEYEKALKYVRGLLQTEPQNNQAKELERLIDKAMKKDGLVGMAIVGGMALGVAGLAGLIGLAVSKSKS
B2: Myc-hFis1[32-152]GGIDGG (domain or fragment, human, UniProt Q9Y3D6 32-152, looked up)
chain: KSTQFEYAWCLVRSKYNDDIRKGIVLLEELLPGGIDGGRDYVFYLAVGNYRLKEYEKALKYVRGLLQTEPQNNQAKELERLIDKAMKKDGLVGMAIVGGMALGVAGLAGLIGLAVSKSKS
B3: Myc-hFis1[32-152]Δα5 (domain or fragment, human, UniProt Q9Y3D6 32-152, looked up)
chain: KSTQFEYAWCLVRSKYNDDIRKGIVLLEELLPKGSKEEQRDYVFYLAVGNYRLKENQAKELERLIDKAMKKDGLVGMAIVGGMALGVAGLAGLIGLAVSKSKS
B4: Myc-hFis1[32-152]-Y87A (domain or fragment, human, UniProt Q9Y3D6 32-152, looked up)
chain: KSTQFEYAWCLVRSKYNDDIRKGIVLLEELLPKGSKEEQRDYVFYLAVGNYRLKEAEKALKYVRGLLQTEPQNNQAKELERLIDKAMKKDGLVGMAIVGGMALGVAGLAGLIGLAVSKSKS
B5: Myc-hFis1[92-152] (domain or fragment, human, UniProt Q9Y3D6 92-152, looked up)
chain: KYVRGLLQTEPQNNQAKELERLIDKAMKKDGLVGMAIVGGMALGVAGLAGLIGLAVSKSKS
B6: Fis/OMP (other, UniProt Q9Y3D6 1-120, looked up)
chain: MEAVLNELVSVEDLLKFEKKFQSEKAAGSVSKSTQFEYAWCLVRSKYNDDIRKGIVLLEELLPKGSKEEQRDYVFYLAVGNYRLKEYEKALKYVRGLLQTEPQNNQAKELERLIDKAMKKPIFMVLVPVFALTMVAAWAFMRYRQQL

Columns and labels:
cross-linking [1] = molecular target: the molecule itself; experiment: cross-linking
cross-linking [2] = molecular target: the molecule itself; experiment: cross-linking; remark: listed apart in the source

Protein | stoichiometry N (cross-linking [1]) | stoichiometry N (cross-linking [2]) | fold decrease in dimer formation against Myc-hFis1[32-152] (cross-linking [2]) [fold]
B1 | 4 | 5 | –
B2 | – | – | ~3
B3 | – | – | ~8
B4 | – | 2 | –
B5 | – | 2 | –
B6 | – | 2 | –
